The values below are quoted from earlier work in PMC5838028.

For orientation: Kd means the free concentration of one partner at which half of the binding sites on the other are occupied at equilibrium, for simple one-to-one binding.

This series concerns the target glypican-3 (Homo sapiens) (UniProt P51654).

glypican-3 (Homo sapiens), sequence (P51654 359-554): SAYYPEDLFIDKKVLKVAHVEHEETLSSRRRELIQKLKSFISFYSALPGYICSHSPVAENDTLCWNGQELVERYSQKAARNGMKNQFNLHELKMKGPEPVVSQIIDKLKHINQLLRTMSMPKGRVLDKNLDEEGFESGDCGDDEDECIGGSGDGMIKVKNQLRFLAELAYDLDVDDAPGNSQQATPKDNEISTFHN

Take codrituzumab: the Kd is 0.673 nM.
